Laboratory results: patent US20200282100A1, “Hemostatic Dressings with Self-Assembling Peptide Hydrogels” (3-D Matrix, Ltd., priority 2016, published 2020)

Experiment: Congo Red assay of gel formation of peptide solutions in PBS buffer (pH 7.4) with a hemostatic porous dressing
Assay type: physicochemical
Details: PBS pH 7.4, compared with pure RADA16 2.5%
Method: A Congo Red assay was performed to assess gel formation of peptide solutions in a PBS buffer solution (pH 7.4) when used with a hemostatic porous dressing. RADA16 2.5% (PuraMatrix®) was plated on a glass slide and also on a hemostatic porous dressing on a glass slide. PuraMatrix® was spread on the surface of the hemostatic porous dressing using a stick. After 30 seconds, 1% Congo Red solution was added around and on top of the gel aliquots and then the excess Congo Red solution was wiped off prior to examination. RADA16 2.5% was also plated on an absorbable gelatin sponge (Surgifoam®, Ethicon) and on an absorbable oxidized regenerated cellulose woven dressing (Surgicel®, Ethicon). Visualization of gel formation determined the success or failure of gelation. […] Specifically, (1) and (2) show pure RADA16 2.5% (PuraMatrix®). In (3), (4), and (5), RADA16 2.5% is shown with absorbable gelatin sponge (Surgifoam®, Ethicon). In (6), (7), and (8), RADA16 2.5% is shown with absorbable oxidized regenerated cellulose woven dressing (Surgicel®, Ethicon).
A Congo Red assay was performed to assess gel formation of peptide solutions in a PBS buffer solution (pH 7.4) when used with a hemostatic porous dressing.
IEIK13 1.3% (pH 3.0) was plated on a glass slide and on a hemostatic porous dressing on a glass slide. […] Visualization of gel formation determined the success or failure of gelation. […]

Sequence: RADARADARADARADA [RADA16 2.5%]
- gel formation (visualization) (on absorbable gelatin sponge (Surgifoam, Ethicon)): gelled
- gel formation (visualization) (on absorbable oxidized regenerated cellulose woven dressing (Surgicel, Ethicon)): gelled
